The values below come from US20140056893A1 (Eli Lilly, published 2014).

This experiment addresses human glucagon-like peptide 1 receptor (hGLP-1R) (human, UniProt P43220 24-463). Nature of the experiment: cell-based or functional assay.

B1: Homodimeric protein wherein the amino acid sequence of each polypeptide of said protein is SEQ ID NO: 1 (Fc fusion)
chain: HGEGTFTSDVSSYLEEQAAKEFIAWLVAGGGGGGGSGGGGSGGGGSESKYGPPCPPCPAPEAAGGPSVFLFPPKPKDTLMISRTPEVTCVVVDVSCEDPEVQFNWYVDGVEVHNAKTKPREEQFNSTYRVVSVLTVLHQDWLNGKEYKCKVSNKGLPSSIEKTISKAKGQPREPQVYTLPPSCEEMTKNQVSLTCLVKGFYPSDIAVEWESNGQPENNYKTTPPVLDSDGSFFLYSRLTVDKSRWQEGNVFSCSVMHEALHNHYTQKSLSLSLGGGGGSGGGGSGGGGSAHPIPDSSPLLQFGGQVRQRYLYTDDAQQTECHLEIREDGTVGCAADQSPESLLQLKALKPGVIQILGVKTSRFLCQRPDGALYGSLHFDPEACSFREDLKEDGYNVYQSEAHGLPLHLPGDKSPHRKPAPRGPARFLPLPGLPPALPEPPGILAPQPPDVGSSDPLRLVEPSCLRSPSFE
B1: the “In vitro potency (EC50), hGLP-1R-stimulated cAMP functional assay (Alpha Screen) in hGLP-1R-HEK293 cells” value stood at 0.067 nM.
